Experimental data taken from publication PMC2756588.

T1: Abp1, P15891
T1 sequence (P15891 535-592, looked up): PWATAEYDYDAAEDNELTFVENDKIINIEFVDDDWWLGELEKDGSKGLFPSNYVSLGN

T2: Bbc1, P47068
T2 sequence (P47068 1-78, looked up): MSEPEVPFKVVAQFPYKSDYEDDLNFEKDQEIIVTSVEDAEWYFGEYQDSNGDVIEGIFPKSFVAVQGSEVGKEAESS

T3: Boi1, P38041
T3 sequence (P38041 1-86, looked up): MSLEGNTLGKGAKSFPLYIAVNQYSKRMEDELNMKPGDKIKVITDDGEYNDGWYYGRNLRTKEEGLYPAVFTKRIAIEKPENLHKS

T4: Boi2, P39969
T4 sequence (P39969 32-116, looked up): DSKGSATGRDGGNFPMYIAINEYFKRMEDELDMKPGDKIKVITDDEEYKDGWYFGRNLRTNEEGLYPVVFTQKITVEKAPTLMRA

T5: Bud14, P27637
T5 sequence (P27637 247-328, looked up): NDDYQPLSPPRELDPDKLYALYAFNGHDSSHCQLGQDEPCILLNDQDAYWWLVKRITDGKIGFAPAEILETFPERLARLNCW

T6: Bzz1-1, P38822
T6 sequence (P38822 478-572, looked up): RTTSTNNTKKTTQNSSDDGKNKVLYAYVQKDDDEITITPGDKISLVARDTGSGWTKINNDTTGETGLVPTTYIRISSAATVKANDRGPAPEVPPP

T7: Bzz1-2, P38822
T7 sequence (P38822 568-633, looked up): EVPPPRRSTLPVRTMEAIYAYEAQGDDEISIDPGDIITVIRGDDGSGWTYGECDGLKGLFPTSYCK

T8: Cdc25, P04821
T8 sequence (P04821 50-136, looked up): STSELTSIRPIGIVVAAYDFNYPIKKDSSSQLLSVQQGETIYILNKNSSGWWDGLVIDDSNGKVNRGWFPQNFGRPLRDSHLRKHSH

T9: Cyk3, Q07533
T9 sequence (Q07533 1-83, looked up): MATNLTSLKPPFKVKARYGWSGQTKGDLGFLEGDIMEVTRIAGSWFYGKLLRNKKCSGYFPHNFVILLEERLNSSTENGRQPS

T10: Fus1, P11710
T10 sequence (P11710 432-512, looked up): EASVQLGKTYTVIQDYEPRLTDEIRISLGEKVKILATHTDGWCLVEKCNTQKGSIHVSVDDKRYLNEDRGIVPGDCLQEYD

T11: Hof1, Q05080
T11 sequence (Q05080 590-669, looked up): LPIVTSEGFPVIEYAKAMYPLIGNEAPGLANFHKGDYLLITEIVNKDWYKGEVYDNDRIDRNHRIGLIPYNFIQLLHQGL

T12: Hse1, P38753
T12 sequence (P38753 208-285, looked up): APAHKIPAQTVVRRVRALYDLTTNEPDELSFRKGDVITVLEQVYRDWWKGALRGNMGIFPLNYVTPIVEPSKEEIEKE

T13: Lsb1, P53281
T13 sequence (P53281 45-122, looked up): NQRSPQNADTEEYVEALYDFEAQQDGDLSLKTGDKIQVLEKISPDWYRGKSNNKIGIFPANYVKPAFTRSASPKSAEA

T14: Lsb3, P43603
T14 sequence (P43603 385-451, looked up): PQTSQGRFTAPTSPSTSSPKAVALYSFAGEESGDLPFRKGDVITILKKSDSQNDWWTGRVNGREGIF

T15: Lsb4, P32793
T15 sequence (P32793 402-468, looked up): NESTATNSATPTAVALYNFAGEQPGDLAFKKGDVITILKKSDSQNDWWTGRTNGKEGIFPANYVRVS

T16: Myo5, Q04439
T16 sequence (Q04439 1072-1160, looked up): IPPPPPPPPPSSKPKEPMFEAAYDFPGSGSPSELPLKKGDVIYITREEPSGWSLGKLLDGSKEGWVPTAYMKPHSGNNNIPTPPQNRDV

T17: Nbp2, Q12163
T17 sequence (Q12163 103-180, looked up): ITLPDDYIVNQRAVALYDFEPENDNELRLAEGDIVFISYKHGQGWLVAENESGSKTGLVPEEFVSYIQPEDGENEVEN

T18: Pex13, P80667
T18 sequence (P80667 295-386, looked up): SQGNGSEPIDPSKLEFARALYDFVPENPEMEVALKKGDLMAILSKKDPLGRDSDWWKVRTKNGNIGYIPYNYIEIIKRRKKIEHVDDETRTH

T19: Pin3, Q06449
T19 sequence (Q06449 53-122, looked up): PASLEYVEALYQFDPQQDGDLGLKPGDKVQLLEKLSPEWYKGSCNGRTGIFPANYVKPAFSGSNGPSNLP

T20: Sla1-2, P32790
T20 sequence (P32790 60-140, looked up): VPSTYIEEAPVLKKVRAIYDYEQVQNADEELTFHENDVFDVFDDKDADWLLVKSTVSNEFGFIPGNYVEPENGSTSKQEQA

T21: Sla1-3, P32790
T21 sequence (P32790 344-424, looked up): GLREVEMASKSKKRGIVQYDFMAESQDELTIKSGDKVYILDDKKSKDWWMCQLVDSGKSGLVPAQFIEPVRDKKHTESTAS


What was measured:
Assay in all cases: SPOT array
Abp1, P15891 = target: T1, Abp1, P15891; details: median of control spots 935
Bbc1, P47068 = target: T2, Bbc1, P47068; details: median of control spots 796
Bem1-1, P29366 = details: median of control spots 4282
Bem1-2, P29366 = details: median of control spots 4347
Boi1, P38041 = target: T3, Boi1, P38041; details: median of control spots 1162
Boi2, P39969 = target: T4, Boi2, P39969; details: median of control spots 1161
Bud14, P27637 = target: T5, Bud14, P27637; details: median of control spots 956
Bzz1-1, P38822 = target: T6, Bzz1-1, P38822; details: median of control spots 4446
Bzz1-2, P38822 = target: T7, Bzz1-2, P38822; details: median of control spots 4538
Cdc25, P04821 = target: T8, Cdc25, P04821; details: median of control spots 969
Cyk3, Q07533 = target: T9, Cyk3, Q07533; details: median of control spots 1451
Fus1, P11710 = target: T10, Fus1, P11710; details: median of control spots 1200
GST = details: median of control spots 978
Hof1, Q05080 = target: T11, Hof1, Q05080; details: median of control spots 4086
Hse1, P38753 = target: T12, Hse1, P38753; details: median of control spots 1727
Lsb1, P53281 = target: T13, Lsb1, P53281; details: median of control spots 388
Lsb3, P43603 = target: T14, Lsb3, P43603; details: median of control spots 406
Lsb4, P32793 = target: T15, Lsb4, P32793; details: median of control spots 397
Myo3, P36006 = details: median of control spots 468
Myo5, Q04439 = target: T16, Myo5, Q04439; details: median of control spots 471
Nbp2, Q12163 = target: T17, Nbp2, Q12163; details: median of control spots 357
Pex13, P80667 = target: T18, Pex13, P80667; details: median of control spots 1341
Pin3, Q06449 = target: T19, Pin3, Q06449; details: median of control spots 2171
Rvs167, P39743 = details: median of control spots 2707
Sho1, P40073 = details: median of control spots 1148
Sla1-2, P32790 = target: T20, Sla1-2, P32790; details: median of control spots 712
Sla1-3, P32790 = target: T21, Sla1-3, P32790; details: median of control spots 5475

Bem1-1, P29366, sequence (P29366 55-141): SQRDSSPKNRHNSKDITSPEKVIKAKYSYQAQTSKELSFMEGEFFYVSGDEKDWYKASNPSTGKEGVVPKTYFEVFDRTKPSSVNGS
Bem1-2, P29366, sequence (P29366 139-227): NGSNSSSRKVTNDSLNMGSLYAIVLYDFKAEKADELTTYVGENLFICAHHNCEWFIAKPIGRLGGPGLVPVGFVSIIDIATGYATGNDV
Rvs167, P39743, sequence (P39743 419-482): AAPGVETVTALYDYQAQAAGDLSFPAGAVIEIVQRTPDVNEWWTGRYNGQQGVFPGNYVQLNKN
Sho1, P40073, sequence (P40073 287-367): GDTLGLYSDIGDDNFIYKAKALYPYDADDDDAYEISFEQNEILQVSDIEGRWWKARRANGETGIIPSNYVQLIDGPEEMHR

Binder	SPOT intensity (Abp1, P15891)	SPOT intensity (Bbc1, P47068)	SPOT intensity (Bem1-1, P29366)	SPOT intensity (Bem1-2, P29366)	SPOT intensity (Boi1, P38041)	SPOT intensity (Boi2, P39969)	SPOT intensity (Bud14, P27637)	SPOT intensity (Bzz1-1, P38822)	SPOT intensity (Bzz1-2, P38822)	SPOT intensity (Cdc25, P04821)	SPOT intensity (Cyk3, Q07533)	SPOT intensity (Fus1, P11710)	SPOT intensity (GST)	SPOT intensity (Hof1, Q05080)	SPOT intensity (Hse1, P38753)	SPOT intensity (Lsb1, P53281)	SPOT intensity (Lsb3, P43603)	SPOT intensity (Lsb4, P32793)	SPOT intensity (Myo3, P36006)	SPOT intensity (Myo5, Q04439)	other results
ISRRRLPVIMHRLKM	90	26	0	16	1	1	2	0	5	51	0	15	0	9	17	137	2	21	7	2	SPOT intensity (Nbp2, Q12163): 5; SPOT intensity (Pex13, P80667): 22; SPOT intensity (Pin3, Q06449): 27; SPOT intensity (Rvs167, P39743): 21; SPOT intensity (Sho1, P40073): 112; SPOT intensity (Sla1-2, P32790): 1; SPOT intensity (Sla1-3, P32790): 20
VRVKKRPLIRPLNSS	301	201	0	0	2	3	16	1	11	127	2	6	1	0	14	9	6	16	8	1	SPOT intensity (Nbp2, Q12163): 9; SPOT intensity (Pex13, P80667): 4; SPOT intensity (Pin3, Q06449): 1; SPOT intensity (Rvs167, P39743): 7; SPOT intensity (Sho1, P40073): 188; SPOT intensity (Sla1-2, P32790): 2; SPOT intensity (Sla1-3, P32790): 22
KRKRFNLLLPKPYLT	72	175	3	4	9	2	34	3	6	32	3	64	2	4	12	0	0	1	0	0	SPOT intensity (Nbp2, Q12163): 53; SPOT intensity (Pex13, P80667): 3; SPOT intensity (Pin3, Q06449): 0; SPOT intensity (Rvs167, P39743): 3; SPOT intensity (Sho1, P40073): 98; SPOT intensity (Sla1-2, P32790): 2; SPOT intensity (Sla1-3, P32790): 34
HRRRRVFSIPSLKSI	158	395	1	8	15	4	64	3	5	131	5	136	1	17	19	114	5	10	6	0	SPOT intensity (Nbp2, Q12163): 176; SPOT intensity (Pex13, P80667): 4; SPOT intensity (Pin3, Q06449): 7; SPOT intensity (Rvs167, P39743): 3; SPOT intensity (Sho1, P40073): 123; SPOT intensity (Sla1-2, P32790): 0; SPOT intensity (Sla1-3, P32790): 117
LRIKRKPVQTFFEFI	102	54	1	4	11	1	17	0	0	271	1	16	1	7	25	4	0	12	8	0	SPOT intensity (Nbp2, Q12163): 46; SPOT intensity (Pex13, P80667): 13; SPOT intensity (Pin3, Q06449): 5; SPOT intensity (Rvs167, P39743): 2; SPOT intensity (Sho1, P40073): 173; SPOT intensity (Sla1-2, P32790): 0; SPOT intensity (Sla1-3, P32790): 9
VNFRRIPTGPDSPPT	5	2	0	0	0	0	3	0	3	0	0	0	0	3	4	0	2	2	0	0	SPOT intensity (Nbp2, Q12163): 0; SPOT intensity (Pex13, P80667): 6; SPOT intensity (Pin3, Q06449): 0; SPOT intensity (Rvs167, P39743): 2; SPOT intensity (Sho1, P40073): 19; SPOT intensity (Sla1-2, P32790): 0; SPOT intensity (Sla1-3, P32790): 17
